In patent US20170128520A1 (E AND B TECHNOLOGIES, published 2017):

T1: endothelial nitric oxide synthase (eNOS) of cultured bovine aorta endothelial cells (BAEC) (bovine, UniProt P29473 2-1205)
T1 sequence (looked up): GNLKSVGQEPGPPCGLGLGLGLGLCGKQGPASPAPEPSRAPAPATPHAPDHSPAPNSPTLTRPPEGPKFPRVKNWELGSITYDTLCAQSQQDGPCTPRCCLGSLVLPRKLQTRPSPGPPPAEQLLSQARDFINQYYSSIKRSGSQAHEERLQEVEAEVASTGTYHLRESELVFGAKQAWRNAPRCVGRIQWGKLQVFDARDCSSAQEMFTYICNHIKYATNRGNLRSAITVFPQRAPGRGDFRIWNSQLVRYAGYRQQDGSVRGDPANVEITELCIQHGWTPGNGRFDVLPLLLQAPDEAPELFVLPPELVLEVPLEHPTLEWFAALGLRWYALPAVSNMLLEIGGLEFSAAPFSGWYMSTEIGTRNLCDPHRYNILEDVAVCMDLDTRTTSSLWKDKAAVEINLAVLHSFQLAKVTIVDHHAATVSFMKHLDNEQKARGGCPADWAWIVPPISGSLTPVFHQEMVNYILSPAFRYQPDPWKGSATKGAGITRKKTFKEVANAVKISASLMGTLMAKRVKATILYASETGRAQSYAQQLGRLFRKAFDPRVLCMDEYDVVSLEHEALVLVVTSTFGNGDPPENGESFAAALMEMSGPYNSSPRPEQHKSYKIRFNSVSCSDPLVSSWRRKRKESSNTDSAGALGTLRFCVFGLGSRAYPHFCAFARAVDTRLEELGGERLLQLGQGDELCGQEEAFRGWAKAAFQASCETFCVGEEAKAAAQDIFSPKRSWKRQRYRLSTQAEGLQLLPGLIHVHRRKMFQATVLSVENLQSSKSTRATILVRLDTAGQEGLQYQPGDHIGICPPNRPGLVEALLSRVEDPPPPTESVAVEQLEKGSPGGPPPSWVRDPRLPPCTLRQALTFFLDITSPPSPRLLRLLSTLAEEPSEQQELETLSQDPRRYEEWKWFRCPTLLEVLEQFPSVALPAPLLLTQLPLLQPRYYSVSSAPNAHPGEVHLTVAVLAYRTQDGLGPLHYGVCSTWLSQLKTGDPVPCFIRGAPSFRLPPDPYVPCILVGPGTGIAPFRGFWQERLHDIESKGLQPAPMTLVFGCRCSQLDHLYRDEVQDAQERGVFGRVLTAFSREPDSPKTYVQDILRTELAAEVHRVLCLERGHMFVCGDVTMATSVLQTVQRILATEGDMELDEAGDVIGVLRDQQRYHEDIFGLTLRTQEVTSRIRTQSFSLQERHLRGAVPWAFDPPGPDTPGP


Biological target: T1, endothelial nitric oxide synthase …
Test: cell-based or functional assay

EC50 of inhibition of VEGF-induced NO release by BAEC (dose response, non-linear regression)	Binder
7.5 µM	RRPPRDGIWKASFTTFTVTKYWFYR [Endo5-Cav (SEQ ID NO. 1/SEQ ID NO. 5)]
1.8 µM	RQIKIWFQNRRMKWKKDGIWKASFTTFTVTKYWFYR [AP-Cav (SEQ ID NO. 2/SEQ ID NO. 5)]
